The chains are these.
B1: F3 domain of TLN1 (TLN1-F3) (domain or fragment, UniProt P26039 305-405, looked up)
chain: LKTYGVSFFLVKEKMKGKNKLVPRLLGITKECVMRVDEKTKEVIQEWSLTNIKRWAASPKSFTLDFGDYQDGYYSVQTTEGEQIAQLIAGYIDIILKKKKS
notes: Used unlabelled, 15N-labelled or partially deuterated in NMR; also called T1-F3; source: E. coli (DE3) Rosetta 2, purified (IMAC, SEC); not shown: His10, N-terminal, cleaved; SUMO, N-terminal, cleaved
B2: kindlin-2 (KIND2) (natural protein)
chain: MALDGIRMPDGCYADGTWELSVHVTDLNRDVTLRVTGEVHIGGVMLKLVEKLDVKKDWSDHALWWEKKRTWLLKTHWTLDKCGIQADAKLQFTPQHKLLRLQLPNMKYVKVKVNFSDRVFKAVSDICKTFNIRHPEELSLLKKPRDPTKKKKKKLDDQSEDEALELEGPLIMPGSGSIYSSPGLYSKTMTPTYDAHDGSPLSPTSAWFGDSALSEGNPGILAVSQPVTSPEILAKMFKPQALLDKAKTNQGWLDSSRSLMEQDVKENEALLLRFKYYSFFDLNPKYDAIRINQLYEQAKWALLLEEIECTEEEMMMFAALQYHINKLSIMTSENHLNNSDKEVDEVDAALSDLEITLEGGKTSTILGDITSIPELADYIKVFKPKKLTLKGYKQYWCTFKDTSISCYKSREESSGTPAHQLNLRGCEVTPDVNISGQKFNIKLLIPVAEGMNEIWLRCDNEKQYAHWMAACRLASKGKTMADSSYNLEVQNILSFLKMQHLNPDPQLIPDQITTDVNPECLVSPRYLKKYKSKQITARILEAHQNVAQMSLIEAKMRFIQAWQSLPEFGITHFIARFQGGKREELIGIAYNRLIRMDASTGDAIKTWRFSNMKQWNVNWEIKMVTVEFADEVRLSFICTEVDCKVVHEFIGGYIFLSTRAKDQNESLDEEMFYKLTSGWV

Assay [1] concerns the target T1, kindlin-2 (KIND2) (UniProt Q8CIB5 1-680).
T1 construct: kindlin-2 (KIND2) without the deletions of ΔKIND2; In FC-RDA a copy labelled with Alexa 647 (647–KIND2) was the reporter; also called 647–KIND2; source: E. coli Rosetta, purified (IMAC, SEC); not shown: His10, N-terminal, cleaved; SUMO, N-terminal, cleaved
T1 sequence (looked up): B2 chain
In words: NMR titration; 15N-labelled TLN1-F3 observed in the presence of β1-CT at saturating concentration (200 µM) with 75 µM KIND2 added; 298 K. The following applies: both partners purified.

Assay [2] addresses T2, TLN1-F3–ΔKIND2^Y13A fusion protein.
T2 chain: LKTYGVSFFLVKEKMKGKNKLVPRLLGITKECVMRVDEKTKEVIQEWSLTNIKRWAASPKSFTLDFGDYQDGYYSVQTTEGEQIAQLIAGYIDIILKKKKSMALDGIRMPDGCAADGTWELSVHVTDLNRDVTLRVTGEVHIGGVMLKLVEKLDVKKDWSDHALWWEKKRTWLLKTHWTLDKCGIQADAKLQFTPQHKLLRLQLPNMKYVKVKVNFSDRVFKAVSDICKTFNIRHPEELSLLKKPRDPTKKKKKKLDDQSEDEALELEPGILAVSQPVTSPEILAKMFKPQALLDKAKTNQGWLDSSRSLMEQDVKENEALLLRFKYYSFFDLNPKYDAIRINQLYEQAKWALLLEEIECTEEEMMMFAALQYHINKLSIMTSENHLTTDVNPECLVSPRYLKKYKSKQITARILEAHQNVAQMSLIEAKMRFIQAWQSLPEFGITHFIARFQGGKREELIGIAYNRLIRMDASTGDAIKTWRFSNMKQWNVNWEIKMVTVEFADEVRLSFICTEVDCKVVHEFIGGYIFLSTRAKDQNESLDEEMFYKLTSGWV
In words: MST; TLN1-F3 contribution.

The target of assay [3] is T3, TLN1-F3–ΔKIND2 fusion protein.
T3 chain: T2 chain with A114Y
Briefly: MST; TLN1-F3 contribution.

For assay [4], the target named is T4, talin-2 head domain (THD2) (UniProt Q71LX4 1-408).
T4 chain: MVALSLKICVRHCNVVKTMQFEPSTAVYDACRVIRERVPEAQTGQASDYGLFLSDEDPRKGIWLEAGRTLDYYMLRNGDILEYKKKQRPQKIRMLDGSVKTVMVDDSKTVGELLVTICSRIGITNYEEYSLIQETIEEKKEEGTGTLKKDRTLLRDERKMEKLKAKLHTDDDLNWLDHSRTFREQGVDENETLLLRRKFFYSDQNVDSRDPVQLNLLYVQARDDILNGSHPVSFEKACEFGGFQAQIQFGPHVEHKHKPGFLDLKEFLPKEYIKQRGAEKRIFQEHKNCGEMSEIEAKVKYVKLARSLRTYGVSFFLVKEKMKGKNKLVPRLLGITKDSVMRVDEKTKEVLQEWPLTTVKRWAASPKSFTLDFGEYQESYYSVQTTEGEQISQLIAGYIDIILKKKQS
Briefly: MST.

Assay [5] concerns the target T5, talin-1 head domain (THD1) (UniProt P26039 1-405).
T5 chain: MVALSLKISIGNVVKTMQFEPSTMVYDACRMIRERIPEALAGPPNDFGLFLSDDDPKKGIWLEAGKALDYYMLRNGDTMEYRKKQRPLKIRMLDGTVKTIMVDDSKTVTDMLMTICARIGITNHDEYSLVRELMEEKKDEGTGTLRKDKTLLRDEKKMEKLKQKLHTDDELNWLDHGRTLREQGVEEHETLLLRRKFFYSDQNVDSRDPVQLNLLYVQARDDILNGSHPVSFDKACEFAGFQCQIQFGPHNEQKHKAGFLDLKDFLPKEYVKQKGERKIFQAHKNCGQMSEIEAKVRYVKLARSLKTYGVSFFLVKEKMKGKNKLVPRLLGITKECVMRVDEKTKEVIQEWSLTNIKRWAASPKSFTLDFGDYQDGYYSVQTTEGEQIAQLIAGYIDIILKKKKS
Briefly: MST.

The target of assay [6] is B2. In words: MST.
Assay [7] has as its target B2. In words: MST; apparent, with THD1.
Assay [8] concerns the target B2. Briefly: MST.
Assay [9] has as its target T5, talin-1 head domain (THD1). Briefly: MST; apparent, with KIND2.
The target in assay [10] is T3, TLN1-F3–ΔKIND2 fusion protein. In words: MST.
The target in assay [11] is T6, α5-TM lacking the cytoplasmic domain (tailless α5-TM) in nanodiscs (UniProt P11688 993-1025, biotin (biotin-maleimide)).
T6 chain: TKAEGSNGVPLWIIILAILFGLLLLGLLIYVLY
Briefly: FACS; 10% PIP3 nanodiscs.

The target of assay [12] is T7, β1-TM–CT Y795A (KIND2-binding impaired) in nanodiscs (UniProt P09055 726-798, Y795A, biotin (biotin-maleimide)). Briefly: FACS; 10% PIP3 nanodiscs.
Assay [13] has as its target T8, β1 transmembrane and cytoplasmic tail polypeptide (β1-TM–CT) in nanodiscs (UniProt P05556 726-798, biotin (biotin-maleimide)).
T8 chain: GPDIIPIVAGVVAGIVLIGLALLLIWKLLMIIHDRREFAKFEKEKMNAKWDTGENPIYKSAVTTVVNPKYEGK
In words: FACS; 10% PIP3 nanodiscs.

The target of assay [14] is T9, β1-TM–CT Y783A (THD1-binding impaired) in nanodiscs (UniProt P09055 726-798, Y783A, biotin (biotin-maleimide)). Briefly: FACS; 10% PIP3 nanodiscs.
Assay [15] has as its target T6, α5-TM lacking the cytoplasmic domain …. Briefly: FACS; 10% PIP2 nanodiscs.
Assay [16] concerns the target T10, β3 transmembrane and cytoplasmic tail polypeptide (β3-TM–CT) in nanodiscs (UniProt O54890 715-787, biotin (biotin-maleimide)).
T10 chain: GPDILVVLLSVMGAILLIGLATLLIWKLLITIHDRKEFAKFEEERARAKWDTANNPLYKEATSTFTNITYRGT
Briefly: FACS; 10% PIP2 nanodiscs.

The target in assay [17] is T7, β1-TM–CT Y795A (KIND2-binding impaired) …. Briefly: FACS; 10% PIP2 nanodiscs.
The target of assay [18] is T8, β1 transmembrane and cytoplasmic tail …. In words: FACS; 10% PIP2 nanodiscs.
Assay [19] deals with T9, β1-TM–CT Y783A (THD1-binding impaired) …. Briefly: FACS; 10% PIP2 nanodiscs.

Where a chain is given by its changes, count along the chain named. In names and notes the source's numbering stands. No end group written: not given here.

Consider B1, for which, in the assay with kindlin-2 (KIND2) [1], the binding result is reported as “binds”.
With {ATTO 488}-KLLMIIHDRREFAKFEKEKMNAKWDTGENPIYKSAVTTVVNPKYEGK [ATTO 488-labelled β1-CT (488–β1-CT)], the Kd in [2] stood at 15.7 µM; in assay [3], 25.3 µM; in assay [4], 25 µM; in assay [5], 140 µM; with kindlin-2 (KIND2) [6] it was 2.9 µM; in the assay with kindlin-2 (KIND2) [7], 42 µM. In addition, the values for the Kd (in the assay with kindlin-2 (KIND2) [8]; in [9]) were 3000 nM and 153 µM, respectively.
With {ATTO 488}-KLLMIIHDRREFAKFEKEKMNAKWDTGENPIAKSAVTTVVNPKYEGK [ATTO 488-labelled β1-CT^Y783A], the Kd worked out at 4.9 µM with kindlin-2 (KIND2) [6] and 4.3 µM in assay [10].
B2: the half-maximal inhibitory concentration (IC50) in [11] worked out at 471 nM; in assay [12], 162 nM; in assay [13], 102 nM; in assay [14] it was 255 nM; in assay [15], 444 nM; in assay [16] it was 95 nM. Besides, the values for the half-inhibitory concentration (IC50) in assay [17], in assay [18] and in assay [19] were 370 nM, 120 nM and 117 nM, respectively.

Values taken from PMC10716038, “Talin and kindlin use integrin tail allostery and direct binding to activate integrins” (Nature Structural & Molecular Biology, 2023).
